For one molecule, Kd results are on record in paper PMC12549904 (Communications Biology, 2025).

In this assay the target is Biotinylated RpoS (S. Typhimurium ATCC 14028S, UniProt D0ZVL4 1-330, biotin (EZ-Link-Biotin; sites not stated)). The assay can be described thus: BLI.
Biotinylated RpoS, sequence (D0ZVL4 whole entry): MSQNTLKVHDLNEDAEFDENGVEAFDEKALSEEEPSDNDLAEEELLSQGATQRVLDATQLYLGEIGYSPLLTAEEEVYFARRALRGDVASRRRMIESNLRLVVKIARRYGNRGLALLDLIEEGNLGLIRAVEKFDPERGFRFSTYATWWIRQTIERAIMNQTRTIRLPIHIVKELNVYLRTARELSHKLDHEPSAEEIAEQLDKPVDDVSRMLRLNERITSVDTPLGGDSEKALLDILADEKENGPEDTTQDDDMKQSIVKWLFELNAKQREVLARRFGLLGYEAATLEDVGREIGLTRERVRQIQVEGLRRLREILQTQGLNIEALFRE

B1: MicN (purified, His-tag cleaved) (natural protein, S. Typhimurium ATCC 14028S)
chain: MKEGFYWIQHNGRVQVAYYTHGVTEDLETGQTIIGVWHLTQGDDICHNGEAEILAGPLEPPI
As for B1, the dissociation constant Kd is 43.6 nM.

What is called Kd is the concentration at which binding is half-saturated.
